The source of these data is patent US5747275, “Protein kinase required for RAS signal transduction” (The Regents of the University of California, dated 1998).

Experiment [1] deals with Dsor1 (D-MEK) (Drosophila, UniProt Q24324). As to the kind of experiment: yeast two-hybrid.
Experiment [2] concerns the target Drosophila Ras1 (Drosophila, UniProt P08646). As to the kind of experiment: yeast two-hybrid system or bacterially-expressed fusion proteins.

B1: Drosophila melanogaster kinase suppressor of ras (Ksr) (enzyme)
chain: MSSNNNAPASAPDTGSTNANDPISGSLSVDSNLVIIQDMIDLSANHLEGLRTQCAISSTLTQQEIRCLESKLVRYFSELLLAKMRLNERIPANGLVPHTTGNELRQWLRVVGLSQGTLTACLARLTTLEQSLRLSDEEIRQLLADSPSQREEEELRRLTRAMQNLRKCMESLESGTAASNNDPEQWHWDSWDRPTHIHRGSVGNIGLGNNSTASPRTHHRQHGVKGKNSALANSTNFKSGRQSPSATEELNSTQGSQLTLTLTPSPPNSPFTPSSGLSSSLNGTPQRSRGTPPPARKHQTLLSQSHVQVDGEQLARNRLPTDPSTDSHSSTSSDIFVDPNTNASSGGSSSNVLMVPCSPGVGHVGMGHAIKHRFTKALGFMATCTLCQKQVFHRWMKCTDCKYICHKSCAPHVPPSCGLPREYVDEFRHIKEQGGYASLPHVHGAAKGSPLVKKSTLGKPLHQQHGDSSSPSSSCTSSTPSSPALFQQRERELDQAGSSSSANLLPTPSLGKHQPSQFNFPNVTVTSSGGSGGVSLISNEPVPEQFPTAPATANGGLDSLVSSSNGHMSSLIGSQTSNASTAATLTGSLVNSTTTTSTCSFFPRKLSTAGVDKRTPFTSECTDTHKSNDSDKTVSLSGSASTDSDRTPVRVDSTEDGDSGQWRQNSISLKEWDIPYGDLLLLERIGQGRFGTVHRALWHGDVAVKLLNEDYLQDEHMLETFRSEVANFKNTRHENLVLFMGACMNPPYLAIVTSLCKGNTLYTYIHQRREKFAMNRTLLIAQQIAQGMGYLHAREIIHKDLRTKNIFIENGKVIITDFGLFSSTKLLYCDMGLGVPHNWLCYLAPELIRALQPEKPRGECLEFTPYSDVYSFGTVWYELICGEFTFKDQPAESIIWQVGRGMKQSLANLQSGRDVKDLLMLCWTYEKEHRPQFARLLSLLEHLPKKRLARSPSHPVNLSRSAESVF
Consider B1, for which the binding result in experiment [1] and in experiment [2] was “no binding” each time.
